Key:
[1] = anti-Hag western densitometry of cell lysates; settings: glycan lost; control: native V3, Dox, no Tun
[2] = anti-Hag immunocytochemistry, extracellular V3 staining; settings: glycan lost; control: native V3, Dox, no Tun
[3] = conditioned-media western and immunocytochemistry; settings: glycan lost; control: same mutant without Tun

versican isoform V3 (rat V3): tunicamycin
expression_or_secretion, fold_change [1]: decreases | localisation_or_trafficking [2]: no change

versican isoform V3 (rat V3): N330Q + tunicamycin
expression_or_secretion [3]: abolishes

versican isoform V3 (rat V3): N57Q + tunicamycin
expression_or_secretion [3]: abolishes
